Values belong to the binder of their own block, whether it stands above or below them.
Key:
PD-1 (binding assay) = PD-1 (binding assay) (UniProt Q15116 25-167, limits assumed); assay: FCM or ELISA, graded
PD-1 = molecular target: T1, PD-1 (human, UniProt Q15116 25-167, limits assumed); assay: FCM or ELISA
T1 construct: The reporter assay used Jurkat T cells expressing human PD-1
T1 sequence (Q15116 25-167 limits assumed): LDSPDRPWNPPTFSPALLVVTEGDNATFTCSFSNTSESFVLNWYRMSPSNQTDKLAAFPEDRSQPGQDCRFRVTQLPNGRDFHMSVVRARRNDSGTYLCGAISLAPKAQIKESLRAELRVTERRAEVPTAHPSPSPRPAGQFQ

PD-1 (binding assay), sequence (Q15116 25-167 limits assumed): as above

binding result (PD-1): binds
B4: Ly2281 (bispecific antibody)
chain 1: QVTLKESGPALVKPTQTLTLTCTFSGFSLSTSGTCVSWIRQPPGKALEWLATICWEDSKGYNPSLKSRLTISKDTSKNQAVLTMTNMDPVDTATYYCARREDSGYFWFPYWGQGTLVTVSSASTKGPSVFPLAPSSKSTSGGTAALGCLVKDYFPEPVTVSWNSGALTSGVHTFPAVLQSSGLYSLSSVVTVPSSSLGTQTYICNVNHKPSNTKVDKKVEPKSCGGGGSGGGGSGGGGSGGGGSQVQLVQSGAEVKKPGASVKVSCKASGYTFAGFEMHWVRQAPGQGLEWMGAIDPKTGGTDYNQKFKDRVTMTRDTSISTAYMELSRLRSDDTAVYYCARDLGYFDVWGQGTLVTVSSGGGGSDKTHTCPPCPAPEAAGPSVFLFPPKPKDTLMISRTPEVTCVVVDVSHEDPEVKFNWYVDGVEVHNAKTKPREEQYNSTYRVVSVLTVLHQDWLNGKEYKCKVSNKALPAPIEKTISKAKGQPREPQVYTLPPSREEMTKNQVSLWCLVKGFYPSDIAVEWESNGQPENNYKTTPPVLDSDGSFFLYSKLTVDKSRWQQGNVFSCSVMHEALHNHYTQKSLSLSPG
chain 2: QVTLKESGPALVKPTQTLTLTCTFSGFSLSTSGTCVSWIRQPPGKALEWLATICWEDSKGYNPSLKSRLTISKDTSKNQAVLTMTNMDPVDTATYYCARREDSGYFWFPYWGQGTLVTVSSASTKGPSVFPLAPSSKSTSGGTAALGCLVKDYFPEPVTVSWNSGALTSGVHTFPAVLQSSGLYSLSSVVTVPSSSLGTQTYICNVNHKPSNTKVDKKVEPKSCGGGGSGGGGSGGGGSGGGGSDIQMTQSPSSLSASVGDRVTITCRASQDIRSNLNWYQQKPGGAVKLLIYYTSRLHSGVPSRFSGSGSGTDYTLTISSLQPEDFATYFCQQSEKLPRTFGGGTKVEIRGGGGSDKTHTCPPCPAPEAAGPSVFLFPPKPKDTLMISRTPEVTCVVVDVSHEDPEVKFNWYVDGVEVHNAKTKPREEQYNSTYRVVSVLTVLHQDWLNGKEYKCKVSNKALPAPIEKTISKAKGQPREPQVYTLPPSREEMTKNQVSLSCAVKGFYPSDIAVEWESNGQPENNYKTTPPVLDSDGSFFLVSKLTVDKSRWQQGNVFSCSVMHEALHNRFTQKSLSLSPG
light: NIQMTQSPSSLSASVGDRVTITCKAGQNVNNYLAWYQQKPGKAPKVLIFNANSLQTGVPSRFSGSGSGTDFTLTISSLQPEDFATYYCQQYNSWPTFGGGTKVEIKRTVAAPSVFIFPPSDEQLKSGTASVVCLLNNFYPREAKVQWKVDNALQSGNSQESVTEQDSKDSTYSLSSTLTLSKADYEKHKVYACEVTHQGLSSPVTKSFNRGEC
notes: PD-1/CD137: two PD-1 Fabs, central CD137 Fv

binding result (PD-1): binds
B5: Ly2409 (bispecific antibody)
chain 1: QVTLKESGPALVKPTQTLTLTCTFSGFSLSTSGTCVSWIRQPPGKALEWLATICWEDSKGYNPSLKSRLTISKDTSKNQAVLTMTNMDPVDTATYYCARREDSGYFWFPYWGQGTLVTVSSASTKGPSVFPLAPSSKSTSGGTAALGCLVKDYFPEPVTVSWNSGALTSGVHTFPAVLQSSGLYSLSSVVTVPSSSLGTQTYICNVNHKPSNTKVDKKVEPKSCGGGGSGGGGSGGGGSGGGGSEVQLVESGGGLVQPGGSLRLSCAASGFTFTNYGLHWVRQAPGKGLEWVSSISPSGGVTYYRDSVKGRFTISRDNSKNTLYLQMNSLRAEDTAVYYCAKPFLGWGGANWIAHWGQGTLVTVSSGGGGSDKTHTCPPCPAPEAAGPSVFLFPPKPKDTLMISRTPEVTCVVVDVSHEDPEVKFNWYVDGVEVHNAKTKPREEQYNSTYRVVSVLTVLHQDWLNGKEYKCKVSNKALPAPIEKTISKAKGQPREPQVYTLPPSREEMTKNQVSLWCLVKGFYPSDIAVEWESNGQPENNYKTTPPVLDSDGSFFLYSKLTVDKSRWQQGNVFSCSVMHEALHNHYTQKSLSLSPG
chain 2: QVTLKESGPALVKPTQTLTLTCTFSGFSLSTSGTCVSWIRQPPGKALEWLATICWEDSKGYNPSLKSRLTISKDTSKNQAVLTMTNMDPVDTATYYCARREDSGYFWFPYWGQGTLVTVSSASTKGPSVFPLAPSSKSTSGGTAALGCLVKDYFPEPVTVSWNSGALTSGVHTFPAVLQSSGLYSLSSVVTVPSSSLGTQTYICNVNHKPSNTKVDKKVEPKSCGGGGSGGGGSGGGGSGGGGSDIQMTQSPSSLSASVGDRVTITCLASEDISNDLAWYQQKPGKAPKLLIYFVDRLLDGVPSRFSGSGSGTDFTLTISSLQPEDFATYYCQQSYKYPPTFGQGTKLEIKGGGGSDKTHTCPPCPAPEAAGPSVFLFPPKPKDTLMISRTPEVTCVVVDVSHEDPEVKFNWYVDGVEVHNAKTKPREEQYNSTYRVVSVLTVLHQDWLNGKEYKCKVSNKALPAPIEKTISKAKGQPREPQVYTLPPSREEMTKNQVSLSCAVKGFYPSDIAVEWESNGQPENNYKTTPPVLDSDGSFFLVSKLTVDKSRWQQGNVFSCSVMHEALHNRFTQKSLSLSPG
light: B4 light
notes: PD-1/CD40: two PD-1 Fabs, central CD40 Fv (TM559)

binding result (PD-1): binds
B6: Ly2396 (bispecific antibody, human IgG1, kappa)
chain 1: QVTLKESGPALVKPTQTLTLTCTFSGFSLSTSGTCVSWIRQPPGKALEWLATICWEDSKGYNPSLKSRLTISKDTSKNQAVLTMTNMDPVDTATYYCARREDSGYFWFPYWGQGTLVTVSSASTKGPSVFPLAPSSKSTSGGTAALGCLVKDYFPEPVTVSWNSGALTSGVHTFPAVLQSSGLYSLSSVVTVPSSSLGTQTYICNVNHKPSNTKVDKKVEPKSCDKTHTCPPCPAPEAAGPSVFLFPPKPKDTLMISRTPEVTCVVVDVSHEDPEVKFNWYVDGVEVHNAKTKPREEQYNSTYRVVSVLTVLHQDWLNGKEYKCKVSNKALPAPIEKTISKAKGQPREPQVYTLPPSREEMTKNQVSLWCLVKGFYPSDIAVEWESNGQPENNYKTTPPVLDSDGSFFLYSKLTVDKSRWQQGNVFSCSVMHEALHNHYTQKSLSLSPGGGGGSGGGGSGGGGSGGGGSQVQLVQSGAEVKKPGASVKVSCKASGYTFAGFEMHWVRQAPGQGLEWMGAIDPKTGGTDYNQKFKDRVTMTRDTSISTAYMELSRLRSDDTAVYYCARDLGYFDVWGQGTLVTVSS
chain 2: QVTLKESGPALVKPTQTLTLTCTFSGFSLSTSGTCVSWIRQPPGKALEWLATICWEDSKGYNPSLKSRLTISKDTSKNQAVLTMTNMDPVDTATYYCARREDSGYFWFPYWGQGTLVTVSSASTKGPSVFPLAPSSKSTSGGTAALGCLVKDYFPEPVTVSWNSGALTSGVHTFPAVLQSSGLYSLSSVVTVPSSSLGTQTYICNVNHKPSNTKVDKKVEPKSCDKTHTCPPCPAPEAAGPSVFLFPPKPKDTLMISRTPEVTCVVVDVSHEDPEVKFNWYVDGVEVHNAKTKPREEQYNSTYRVVSVLTVLHQDWLNGKEYKCKVSNKALPAPIEKTISKAKGQPREPQVYTLPPSREEMTKNQVSLSCAVKGFYPSDIAVEWESNGQPENNYKTTPPVLDSDGSFFLVSKLTVDKSRWQQGNVFSCSVMHEALHNRFTQKSLSLSPGGGGGSGGGGSGGGGSGGGGSDIQMTQSPSSLSASVGDRVTITCRASQDIRSNLNWYQQKPGGAVKLLIYYTSRLHSGVPSRFSGSGSGTDYTLTISSLQPEDFATYFCQQSEKLPRTFGGGTKVEIR
light: B4 light
notes: PD-1/CD137: two PD-1 Fabs, terminal CD137 Fv

Continued, binder first:

B1: Ly2280 (bispecific antibody)
heavy 1: not shown
heavy 2: QVTLKESGPALVKPTQTLTLTCTFSGFSLSTSGTCVSWIRQPPGKALEWLATICWEDSKGYNPSLKSRLTISKDTSKNQAVLTMTNMDPVDTATYYCARREDSGYFWFPYWGQGTLVTVSSASTKGPSVFPLAPSSKSTSGGTAALGCLVKDYFPEPVTVSWNSGALTSGVHTFPAVLQSSGLYSLSSVVTVPSSSLGTQTYICNVNHKPSNTKVDKKVEPKSCGGGGSGGGGSGGGGSGGGGSDIQMTQSPSSVSASVGDRVTITCRASQGIYSWLAWYQQKPGKAPNLLIYTASTLQSGVPSRFSGSGSGTDFTLTISSLQPEDFATYYCQQANIFPLTFGGGTKVEIKGGGGSDKTHTCPPCPAPEAAGPSVFLFPPKPKDTLMISRTPEVTCVVVDVSHEDPEVKFNWYVDGVEVHNAKTKPREEQYNSTYRVVSVLTVLHQDWLNGKEYKCKVSNKALPAPIEKTISKAKGQPREPQVYTLPPSREEMTKNQVSLSCAVKGFYPSDIAVEWESNGQPENNYKTTPPVLDSDGSFFLVSKLTVDKSRWQQGNVFSCSVMHEALHNRFTQKSLSLSPG
light: B4 light
notes: PD-1 Fabs (Ly516) x central CD40 Fv (TM383)
binding result (PD-1 (binding assay)): binds

B2: Ly2280 (bispecific antibody)
chain 1: not shown
chain 2: B1 heavy 2
light: B4 light
notes: PD-1/CD40: two PD-1 Fabs, central CD40 Fv (TM383)
binding result (PD-1): binds

B3: Ly2405 (bispecific antibody, human IgG1, kappa)
chain 1: not shown
chain 2: QVTLKESGPALVKPTQTLTLTCTFSGFSLSTSGTCVSWIRQPPGKALEWLATICWEDSKGYNPSLKSRLTISKDTSKNQAVLTMTNMDPVDTATYYCARREDSGYFWFPYWGQGTLVTVSSASTKGPSVFPLAPSSKSTSGGTAALGCLVKDYFPEPVTVSWNSGALTSGVHTFPAVLQSSGLYSLSSVVTVPSSSLGTQTYICNVNHKPSNTKVDKKVEPKSCDKTHTCPPCPAPEAAGPSVFLFPPKPKDTLMISRTPEVTCVVVDVSHEDPEVKFNWYVDGVEVHNAKTKPREEQYNSTYRVVSVLTVLHQDWLNGKEYKCKVSNKALPAPIEKTISKAKGQPREPQVYTLPPSREEMTKNQVSLSCAVKGFYPSDIAVEWESNGQPENNYKTTPPVLDSDGSFFLVSKLTVDKSRWQQGNVFSCSVMHEALHNRFTQKSLSLSPGGGGGSGGGGSGGGGSGGGGSDIQMTQSPSSVSASVGDRVTITCRASQGIYSWLAWYQQKPGKAPNLLIYTASTLQSGVPSRFSGSGSGTDFTLTISSLQPEDFATYYCQQANIFPLTFGGGTKVEIK
light: B4 light
notes: PD-1/CD40: two PD-1 Fabs, terminal CD40 Fv (TM383)
binding result (PD-1): binds

From patent US20250388669A1 (published 2025)
